Laboratory results taken from patent US7799901B2, “Modulators of the function of FAS receptors and other proteins” (Yeda Research and Development Co. Ltd., priority 1995, dated 2010).

T1: MORT-1 (Homo sapiens, UniProt Q13158, G32V)
T1 sequence (Q13158 with tags, fused parts or gaps G32V): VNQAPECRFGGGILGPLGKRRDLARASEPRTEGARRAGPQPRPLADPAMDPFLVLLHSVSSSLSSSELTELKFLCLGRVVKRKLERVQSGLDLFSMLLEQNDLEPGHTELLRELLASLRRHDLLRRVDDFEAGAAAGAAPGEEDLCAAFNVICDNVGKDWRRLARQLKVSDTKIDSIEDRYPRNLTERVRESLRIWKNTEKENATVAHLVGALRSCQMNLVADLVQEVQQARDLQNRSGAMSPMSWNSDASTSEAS

B1: MACHα1 (C360S): MACHα1 mutant in which the catalytic cysteine Cys360 is replaced by Ser (protein)
chain: MDFSRNLYDIGEQLDSEDLASLKFLSLDYIPQRKQEPIKDALMLFQRLQEKRMLEESNLSFLKELLFRINRLDLLITYLNTRKEEMERELQTPGRAQISAYRVMLYQISEEVSRSELRSFKFLLQEEISKCKLDDDMNLLDIFIEMEKRVILGEGKLDILKRVCAQINKSLLKIINDYEEFSKERSSSLEGSPDEFSNGEELCGVMTISDSPREQDSESQTLDKVYQMKSKPRGYCLIINNHNFAKAREKVPKLHSIRDRNGTHLDAGALTTTFEELHFEIKPHDDCTVEQIYEILKIYQLMDHSNMDCFICCILSHGDKGIIYGTDGQEAPIYELTSQFTGLKCPSLAGKPKVFFIQASQGDNYQKGIPVETDSEEQPYLEMDLSSPQTRYIPDEADFLLGMATVNNCVSYRNPAEGTWYIQSLCQSLRERCPRGDDILTILTEVNYEVSNKDDKKNMGKQMPQPTFTLRKKLVFPSD
B2: MACHβ1: MACH isoform, cDNA SEQ ID NO: 4, amino acid SEQ ID NO: 5; lacks the CED3/ICE homology region (protein)
chain: MDFSRNLYDIGEQLDSEDLASLKFLSLDYIPQRKQEPIKDALMLFQRLQEKRMLEESNLSFLKELLFRINRLDLLITYLNTRKEEMERELQTPGRAQISAYRVMLYQISEEVSRSELRSFKFLLQEEISKCKLDDDMNLLDIFIEMEKRVILGEGKLDILKRVCAQINKSLLKIINDYEEFSKERSSSLEGSPDEFSNDFGQSLPNEKQTSGILSDHQQSQFCKSTGESAQTSQH

Columns and labels:
[1] = test system: human embryonic kidney 293-EBNA cells; experiment: Cell death on overexpression of MACH isoforms in 293-EBNA cells; assay type: cell-based; settings: β-galactosidase-expressing cells with apoptopic morphology, 20 h after transfection
Procedure: To explore the involvement of MACH in cell-death induction, the effect of overexpression of various MACH isoforms on cell viability was examined. The test was performed by transfecting MACH expression vectors together with a β-galactosidase expression vector as a transfection marker into human embryonic kidney 293-EBNA cells and breast carcinoma MCF7 cells.
In brief, 293-EBNA cells, MCF7 human breast carcinoma cells and HeLa HtTA-1 cells were grown in Dulbecco's modified Eagle's minimal essential medium supplemented with 10% fetal calf serum, nonessential amino acids, 100 U/ml penicillin and 100 μg/ml streptomycin. Cell tissue culture dishes (5×10^5 293-EBNA cells, 3×10^5 s MCF7 cells or 3×10^5 HeLa cells in 6-cm dishes) were transiently transfected, using the calcium phosphate precipitation method, with the cDNAs of the indicated proteins together with the β-galactosidase expression vector. In the experiments presented in FIGS. 14A-D and 15, each dish was transfected with 3.5 μg of the indicated MACH construct and 1.5 μg of pSV-β-gal. In the experiments presented in FIGS. 16A-D and 17-19, each dish was transfected with 2.5 μg of the indicated MACH or MORT1 construct (or, as control, empty vector) and 1.5 μg of pSV-β-gal. The cells were rinsed 6 to 10 h after transfection. The 293-EBNA and MCF7 cells were incubated for a further 18 h without additional treatment. The HeLa cells were incubated for 26 h after transfection and-then for 5 h in the presence of either anti-Fas.APO1 antibody (CH11, 0.5 μg/ml) or TNF (100 ng/ml), together with cycloheximide (10 μg/ml). The extent of cell death at the end of the incubation periods was assessed by determination of β-galactosidase expression, as described by Kumar et al, 1994.
In particular, FIGS. 14A-D show the morphology of human embryonic kidney 293-EBNA cells transiently expressing the indicated MACH isoforms. The arrows (FIG. 14B) point to apoptopic cells. Photographs were taken 26 h after transfection. […] Data are from three independent experiments with the 293-EBNA cells and two independent experiments with the MCF7 cells.

MORT-1 = target: T1, MORT-1; experiment: Two-hybrid β-galactosidase filter assay (FIG. 5), binding to MORT-1; design: the full-length MORT-1 cDNA was used (MORT 1); expressed in transfected cells; host or cells: SFY526 yeast; settings: two hybrid test
Procedure: The yeast two-hybrid test was further applied to evaluate the specificity of binding of MACH to MORT-1, in particular, to define the region in MORT-1 to which MACH binds, as well as to determine which of the MACH ORFs interacts with MORT-1, the procedures being as set forth herein above in Examples 1 and 2. Briefly, various MORT-1 and MACH constructs were prepared for testing the interaction of the proteins encoded by the Gal4 DNA-binding domain and activation domain constructs within transfected SFY526 yeast cells as assessed by the β-galactosidase expression filter assay. The DNA-binding domain constructs were prepared in pGBT9 vectors and the activation domain constructs were prepared in pGAD-GM vectors. For the activation domain constructs, the full-length MACH cDNA was used (MACH), as was a construct encoding only the ORF-B (MACH B) region. Control activation domain constructs were those containing the full-length MORT-1 coding sequence (MORT 1, positive control) and those having no inserts, i.e., “empty” vectors (pGAD-GM). For the DNA-binding domain constructs, the full-length MORT-1 cDNA was used (MORT 1), as were constructs encoding only the MORT-1 […] (MORT-1DD aa 130-245). […] In the assay, the development of color was determined, where the greater the color development, the greater the interaction between the constructs encoded by the DNA-binding domain and activation domain; Color development was depicted by symbols, where “+++” and “+” indicate the development of a strong color within 30 and 90 min. of the assay, respectively, and “−−−” indicates the lack of development of color within 24 hrs. of the assay. […]
In FIG. 5, there is shown the results of the interaction of MORT-1 and MACH within transfected yeast cells. […] Their interaction was assessed by a β-galactosidase expression filter assay as described in Boldin et al (1995b). […]

Molecule | cell death of transfected 293-EBNA cells [1] | binding to MORT-1 in transfected yeast (MORT-1)
MACHα1: MACH isoform, cDNA SEQ ID NO: 14, amino acid SEQ ID NO: 7; contains CED3/ICE homology region | massive cell death | scored clearly positive
B1 | No death | bound
B2 | some slight cell death | binds
